Data taken from patent US20230242651A1 (published 2023).
Changes are numbered by the printed parent chain.

T1: human interleukin-23 receptor (IL23R) (human, UniProt Q5VWK5 24-355, limits assumed)
T1 construct: also called human IL23R
T1 sequence (looked up): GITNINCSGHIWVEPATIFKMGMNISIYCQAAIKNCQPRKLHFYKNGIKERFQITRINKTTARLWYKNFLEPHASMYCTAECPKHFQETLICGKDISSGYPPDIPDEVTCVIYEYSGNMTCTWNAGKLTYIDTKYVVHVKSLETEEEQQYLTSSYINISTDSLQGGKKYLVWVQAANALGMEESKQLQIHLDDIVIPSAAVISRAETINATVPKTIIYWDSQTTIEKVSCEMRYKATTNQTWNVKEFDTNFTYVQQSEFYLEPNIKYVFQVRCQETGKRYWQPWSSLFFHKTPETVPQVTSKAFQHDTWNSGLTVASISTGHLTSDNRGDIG

B1: Vκ1/VH2 consensus (uncapped), human IL23R specific scFv (scFv)
scFv: DIQMTQSPSSLSASVGDRVTITCQASENIYSFLAWYQQKPGKAPKLLIYSASKLAAGVPSRFSGSGSGTDFTLTISSLQPEDFATYYCQQTNRYSNPDIYNVFGQGTKVEIKRGGGGSGGGGSGGGGSGGGGSQVQLKESGPALVKPTQTLTLTCTFSGIDFNSNYYMCWIRQPPGKALEWLACIYVGSHVNTYYANWAKGRLTISKDTSKNQVVLTMTNMDPVDTATYYCATSGSSVLYFKFWGQGTLVTVSS
notes: scFv VL-linker-VH, made in E. coli; Vκ framework IV (uncapped, full consensus); also called Vκ1VH2 uncapped
B2: Vκ1/VH4 consensus (uncapped), human IL23R specific scFv (scFv)
scFv: DIQMTQSPSSLSASVGDRVTITCQASENIYSFLAWYQQKPGKAPKLLIYSASKLAAGVPSRFSGSGSGTDFTLTISSLQPEDFATYYCQQTNRYSNPDIYNVFGQGTKVEIKRGGGGSGGGGSGGGGSGGGGSQVQLQESGPGLVKPSETLSLTCTVSGIDFNSNYYMCWIRQPPGKGLEWIGCIYVGSHVNTYYANWAKGRVTISVDTSKNQFSLKLSSVTAADTAVYYCATSGSSVLYFKFWGQGTLVTVSS
notes: scFv VL-linker-VH, made in E. coli; Vκ framework IV (uncapped, full consensus); also called Vκ1VH4 uncapped
B3: Vκ3/VH4 consensus (uncapped), human IL23R specific scFv (scFv)
scFv: DIVLTQSPATLSLSPGERATLSCQASENIYSFLAWYQQKPGQAPRLLIYSASKLAAGVPARFSGSGSGTDFTLTISSLEPEDFAVYYCQQTNRYSNPDIYNVFGQGTKVEIKRGGGGSGGGGSGGGGSGGGGSQVQLQESGPGLVKPSETLSLTCTVSGIDFNSNYYMCWIRQPPGKGLEWIGCIYVGSHVNTYYANWAKGRVTISVDTSKNQFSLKLSSVTAADTAVYYCATSGSSVLYFKFWGQGTLVTVSS
notes: scFv VL-linker-VH, made in E. coli; Vκ framework IV (uncapped, full consensus); also called Vκ3VH4 uncapped
B4: Vκ3/VH3 consensus (uncapped), human IL23R specific scFv (scFv)
scFv: DIVLTQSPATLSLSPGERATLSCQASENIYSFLAWYQQKPGQAPRLLIYSASKLAAGVPARFSGSGSGTDFTLTISSLEPEDFAVYYCQQTNRYSNPDIYNVFGQGTKVEIKRGGGGSGGGGSGGGGSGGGGSEVQLVESGGGLVQPGGSLRLSCAASGIDFNSNYYMCWVRQAPGKGLEWVSCIYVGSHVNTYYANWAKGRFTISRDNSKNTLYLQMNSLRAEDTAVYYCATSGSSVLYFKFWGQGTLVTVSS
notes: scFv VL-linker-VH, made in E. coli; Vκ framework IV (uncapped, full consensus); also called Vκ3VH3 uncapped
B5: Vκ2/VH5 consensus (uncapped), human IL23R specific scFv (scFv)
scFv: DIVMTQSPLSLPVTPGEPASISCQASENIYSFLAWYLQKPGQSPQLLIYSASKLAAGVPDRFSGSGSGTDFTLKISRVEAEDVGVYYCQQTNRYSNPDIYNVFGQGTKVEIKRGGGGSGGGGSGGGGSGGGGSEVQLVQSGAEVKKPGESLKISCKGSGIDFNSNYYMCWVRQMPGKGLEWMGCIYVGSHVNTYYANWAKGQVTISADKSISTAYLQWSSLKASDTAMYYCATSGSSVLYFKFWGQGTLVTVSS
notes: scFv VL-linker-VH, made in E. coli; Vκ framework IV (uncapped, full consensus); also called Vκ2VH5 uncapped
B6: Vκ1/VH1A consensus (uncapped), human IL23R specific scFv (scFv)
scFv: DIQMTQSPSSLSASVGDRVTITCQASENIYSFLAWYQQKPGKAPKLLIYSASKLAAGVPSRFSGSGSGTDFTLTISSLQPEDFATYYCQQTNRYSNPDIYNVFGQGTKVEIKRGGGGSGGGGSGGGGSGGGGSQVQLVQSGAEVKKPGSSVKVSCKASGIDFNSNYYMCWVRQAPGQGLEWMGCIYVGSHVNTYYANWAKGRVTITADESTSTAYMELSSLRSEDTAVYYCATSGSSVLYFKFWGQGTLVTVSS
notes: scFv VL-linker-VH, made in E. coli; Vκ framework IV (uncapped, full consensus); also called Vκ1VH1A uncapped
B7: Vκ1/VH1B consensus (uncapped), human IL23R specific scFv (scFv)
scFv: B6 scFv with S149A, I205M, A207R, E209T, T211I
notes: scFv VL-linker-VH, made in E. coli; Vκ framework IV (uncapped, full consensus); also called Vκ1VH1B uncapped
B8: Vκ1/VH3 consensus (uncapped), human IL23R specific scFv (scFv)
scFv: DIQMTQSPSSLSASVGDRVTITCQASENIYSFLAWYQQKPGKAPKLLIYSASKLAAGVPSRFSGSGSGTDFTLTISSLQPEDFATYYCQQTNRYSNPDIYNVFGQGTKVEIKRGGGGSGGGGSGGGGSGGGGSEVQLVESGGGLVQPGGSLRLSCAASGIDFNSNYYMCWVRQAPGKGLEWVSCIYVGSHVNTYYANWAKGRFTISRDNSKNTLYLQMNSLRAEDTAVYYCATSGSSVLYFKFWGQGTLVTVSS
notes: scFv VL-linker-VH, made in E. coli; Vκ framework IV (uncapped, full consensus); also called Vκ1VH3 uncapped
B9: Vκ1/VH6 consensus (uncapped), human IL23R specific scFv (scFv)
scFv: DIQMTQSPSSLSASVGDRVTITCQASENIYSFLAWYQQKPGKAPKLLIYSASKLAAGVPSRFSGSGSGTDFTLTISSLQPEDFATYYCQQTNRYSNPDIYNVFGQGTKVEIKRGGGGSGGGGSGGGGSGGGGSQVQLQQSGPGLVKPSQTLSLTCAISGIDFNSNYYMCWIRQSPGRGLEWLGCIYVGSHVNTYYANWAKGRITINPDTSKNQFSLQLNSVTPEDTAVYYCATSGSSVLYFKFWGQGTLVTVSS
notes: scFv VL-linker-VH, made in E. coli; Vκ framework IV (uncapped, full consensus); also called Vκ1VH6 uncapped

Each binder was assayed against T1, human interleukin-23 receptor (IL23R) (assay: SPR, scFv).
Procedure, shortened: (§1)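 Binding to human IL23R was assessed by surface plasmon resonance, with values given as rate constants and dissociation constant or as a λ-capped over uncapped dissociation-constant ratio. The binders were humanized rabbit variable domains in single-chain variable fragment format on consensus germline framework pairs, with or without a λ-cap. Each was produced in E. coli as inclusion bodies and refolded after solubilization.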

Kd [nM]	koff [s⁻¹]	kon [M⁻¹ s⁻¹]	Binder
0.211	0.000333	1.58e+06	B1
0.0991	0.000176	1.78e+06	B2
0.139	0.000263	1.89e+06	B3
0.0395	6.52e-05	1.65e+06	B4
0.303	0.000475	1.57e+06	B5
0.02	0.000128	6.42e+06	B6
0.168	0.000413	2.45e+06	B7
0.0347	5.28e-05	1.52e+06	B8
0.251	0.000309	1.23e+06	B9

What follows are binders tested against T1, human interleukin-23 receptor (IL23R) (assay: SPR, scFv (summary table)).
Procedure, shortened: as §1

Kd [nM]	Binder
0.211	B1
0.0991	B2
0.139	B3
0.0395	B4
0.303	B5
0.02	B6
0.168	B7
0.0347	B8
0.251	B9
